Ends that are not written are not given here. * marks the point of attachment. Biotin = O=C1N[C@H]2[C@H](CS[C@H]2CCCCC(=O)*)N1
Tests used:
Assay in all cases: peptide or protein array; E. coli proteome chip: purified His-tagged proteins printed in duplicate on Fullmoon slides, blocked with 1% BSA; 10 nM N-terminal biotinylated LfcinB with 1% BSA, room temperature, 1 h; detected with DyLight 649-labeled streptavidin, ratio to DyLight 549-labeled anti-His antibody; ProCAT normalisation, local cut-off; triplicate chips
Details in all cases: both partners purified
[1] = target: T1, CaiA (E. coli K-12, UniProt P60584 1-380)
T1 construct: CaiA, E. coli K-12
T1 sequence (looked up): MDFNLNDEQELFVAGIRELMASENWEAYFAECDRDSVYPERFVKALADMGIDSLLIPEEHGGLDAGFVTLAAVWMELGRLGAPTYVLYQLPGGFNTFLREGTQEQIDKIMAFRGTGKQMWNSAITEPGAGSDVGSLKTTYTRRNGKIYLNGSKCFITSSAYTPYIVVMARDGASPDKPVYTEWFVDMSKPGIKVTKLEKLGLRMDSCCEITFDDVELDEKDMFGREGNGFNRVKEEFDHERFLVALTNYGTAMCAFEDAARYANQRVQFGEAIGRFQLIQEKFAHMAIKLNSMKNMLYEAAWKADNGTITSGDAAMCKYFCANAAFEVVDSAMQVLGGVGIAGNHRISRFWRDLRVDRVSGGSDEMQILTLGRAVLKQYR

[2] = target: T2, YbeY (E. coli K-12, UniProt P0A898 1-155)
T2 construct: YbeY, E. coli K-12
T2 sequence (P0A898 whole entry): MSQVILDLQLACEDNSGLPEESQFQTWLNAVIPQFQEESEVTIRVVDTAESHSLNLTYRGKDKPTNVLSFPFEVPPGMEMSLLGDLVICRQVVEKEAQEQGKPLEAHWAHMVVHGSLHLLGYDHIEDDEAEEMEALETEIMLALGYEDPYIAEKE

[3] = target: T3, YqhC (E. coli K-12, UniProt Q46855 1-318)
T3 construct: YqhC, E. coli K-12
T3 sequence (looked up): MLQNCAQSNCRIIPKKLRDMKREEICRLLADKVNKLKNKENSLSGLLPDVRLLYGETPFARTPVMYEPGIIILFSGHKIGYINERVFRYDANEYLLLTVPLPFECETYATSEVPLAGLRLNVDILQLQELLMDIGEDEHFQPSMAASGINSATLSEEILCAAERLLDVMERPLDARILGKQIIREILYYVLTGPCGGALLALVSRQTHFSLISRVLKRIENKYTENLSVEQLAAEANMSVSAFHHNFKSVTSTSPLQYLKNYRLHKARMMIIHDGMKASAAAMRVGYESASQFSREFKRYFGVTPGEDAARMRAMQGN

[4] = target: T4, InfC (E. coli K-12, UniProt P0A707 1-180)
T4 construct: InfC, E. coli K-12
T4 sequence (looked up): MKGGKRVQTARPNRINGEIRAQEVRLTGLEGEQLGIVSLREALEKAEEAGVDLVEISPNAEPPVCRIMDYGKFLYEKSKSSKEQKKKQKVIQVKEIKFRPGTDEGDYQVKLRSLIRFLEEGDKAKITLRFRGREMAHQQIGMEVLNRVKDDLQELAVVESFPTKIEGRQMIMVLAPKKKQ

[5] = target: T5, YjdK (E. coli K-12, UniProt P0AF61 1-98)
T5 construct: YjdK, E. coli K-12
T5 sequence (looked up): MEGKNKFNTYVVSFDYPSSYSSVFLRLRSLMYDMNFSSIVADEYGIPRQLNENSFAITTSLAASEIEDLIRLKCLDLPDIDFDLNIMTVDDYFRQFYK

[6] = target: T6, adenylate cyclase CyaA (E. coli K-12, UniProt P00936 1-848)
T6 construct: CyaA, adenylate cyclase, E. coli K-12
T6 sequence (looked up): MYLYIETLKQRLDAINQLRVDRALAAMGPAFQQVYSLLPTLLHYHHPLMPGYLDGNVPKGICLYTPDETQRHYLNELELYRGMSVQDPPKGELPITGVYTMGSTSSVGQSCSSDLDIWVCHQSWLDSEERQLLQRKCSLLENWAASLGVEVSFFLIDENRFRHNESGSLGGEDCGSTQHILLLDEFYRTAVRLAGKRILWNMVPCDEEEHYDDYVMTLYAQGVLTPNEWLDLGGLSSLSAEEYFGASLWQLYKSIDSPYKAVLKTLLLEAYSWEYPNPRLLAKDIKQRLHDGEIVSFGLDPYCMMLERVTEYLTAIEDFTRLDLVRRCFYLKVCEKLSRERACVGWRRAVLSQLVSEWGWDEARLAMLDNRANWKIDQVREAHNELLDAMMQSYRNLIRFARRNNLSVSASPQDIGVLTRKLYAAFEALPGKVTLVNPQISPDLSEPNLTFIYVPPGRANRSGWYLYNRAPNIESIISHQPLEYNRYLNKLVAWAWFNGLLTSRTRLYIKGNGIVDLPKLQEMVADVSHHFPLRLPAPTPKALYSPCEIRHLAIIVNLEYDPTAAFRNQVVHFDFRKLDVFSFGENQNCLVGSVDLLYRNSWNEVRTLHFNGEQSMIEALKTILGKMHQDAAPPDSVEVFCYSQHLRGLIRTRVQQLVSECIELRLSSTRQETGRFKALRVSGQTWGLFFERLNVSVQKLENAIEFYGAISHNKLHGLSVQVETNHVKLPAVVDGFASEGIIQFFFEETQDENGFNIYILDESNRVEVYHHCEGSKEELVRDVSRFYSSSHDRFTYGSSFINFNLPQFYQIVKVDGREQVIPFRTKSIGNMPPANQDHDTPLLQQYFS

Measured: binding result

B1: N-terminal biotinylated Lactoferricin B (peptide, UniProt P24627 36-60, looked up)
peptide: Biotin-FKCRRWQWRMKKLGAPSITCVRRAF
modifications: ends and bridges not checked
notes: lactoferricin B (LfcinB), cationic antimicrobial peptide of 25 amino acids; also called biotinylated LfcinB; biotin-labeled LfcinB; source: bought: Kelowna Inc
binds: [1] | [2] | [3] | [4] | [5] | [6]
